The test addresses G. thermodenitrificans SecYE (Geobacillus thermodenitrificans NG80-2, UniProt A4IJK8;A4IJH4). Briefly: SEC. On the technique in general: Size exclusion chromatography separates by hydrodynamic size, large species first.

B1: nanobody AYC08 (VHH)
VHH: QVQLVETGGGLVQPGGSLRLSCGASGSIFNMYAMGWYRQAPGKQREVVARIATDDSTMYPDSVKGRFTISRDNAKNTVYLQMNSLKPEDTAVYYCYYQRTVMSQPYWGQGTQVTVSS
As to B1, the binding result was “binds”.

The record behind these values is article PMC4855518 (Nature, 2016).
